Results reported in patent US20030203372A1, “Analysis method” (priority 2000, published 2003).

Tested on: primary human cell cultures (11 cell types)
Test: Custom gene array, 11 human cell types in normoxia or hypoxia for 6 hr and 18 hr;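 as to mRNA expression level, #1 HY 18 hr: cell type #1 is adipocyte from subcutaneous adult adipose tissue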;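 as to mRNA expression level, #1 HY 6 hr: cell type #1 is adipocyte from subcutaneous adult adipose tissue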;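 as to mRNA expression level, #1 NO: cell type #1 is adipocyte from subcutaneous adult adipose tissue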;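 as to mRNA expression level, #2 HY 18 hr: cell type #2 is fetal cardiomyocyte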;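 as to mRNA expression level, #2 HY 6 hr: cell type #2 is fetal cardiomyocyte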;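 as to mRNA expression level, #2 NO: cell type #2 is fetal cardiomyocyte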;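 as to mRNA expression level, #3 HY 6 hr: cell type #3 is human umbilical vein endothelial cells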;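 as to mRNA expression level, #3 NO: cell type #3 is human umbilical vein endothelial cells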;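 as to mRNA expression level, #4 HY 18 hr: cell type #4 is adult dermal fibroblast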;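 as to mRNA expression level, #4 HY 6 hr: cell type #4 is adult dermal fibroblast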;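 as to mRNA expression level, #4 NO: cell type #4 is adult dermal fibroblast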;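 as to mRNA expression level, #6 HY 6 hr: cell type #6 is blood-derived macrophage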;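 as to mRNA expression level, #6 NO: cell type #6 is blood-derived macrophage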
Type: cell-based
Conditions: for mRNA expression level, #1 HY 6 hr: cell type #1, hypoxia 6 hr; for mRNA expression level, #1 HY 18 hr: cell type #1, hypoxia 18 hr; for mRNA expression level, #1 NO: cell type #1, normoxia; for mRNA expression level, #2 HY 6 hr: cell type #2, hypoxia 6 hr; for mRNA expression level, #2 HY 18 hr: cell type #2, hypoxia 18 hr; for mRNA expression level, #2 NO: cell type #2, normoxia; for mRNA expression level, #3 HY 6 hr: cell type #3, hypoxia 6 hr; for mRNA expression level, #3 HY 18 hr: cell type #3, hypoxia 18 hr; for mRNA expression level, #3 NO: cell type #3, normoxia; for mRNA expression level, #4 HY 6 hr: cell type #4, hypoxia 6 hr; for mRNA expression level, #4 HY 18 hr: cell type #4, hypoxia 18 hr; for mRNA expression level, #4 NO: cell type #4, normoxia; for mRNA expression level, #5 HY 6 hr: cell type #5, hypoxia 6 hr; for mRNA expression level, #5 NO: cell type #5, normoxia; for mRNA expression level, #6 HY 6 hr: cell type #6, hypoxia 6 hr; for #6 HY 18 hr (mRNA expression level): cell type #6, hypoxia 18 hr; for mRNA expression level, #6 NO: cell type #6, normoxia; for #7 HY 6 hr (mRNA expression level): cell type #7, hypoxia 6 hr; for #7 HY 18 hr (mRNA expression level): cell type #7, hypoxia 18 hr; for #7 NO (mRNA expression level): cell type #7, normoxia; for #8 HY 6 hr (mRNA expression level): cell type #8, hypoxia 6 hr; for #8 HY 18 hr (mRNA expression level): cell type #8, hypoxia 18 hr; for #8 NO (mRNA expression level): cell type #8, normoxia; for #9 HY 6 hr (mRNA expression level): cell type #9, hypoxia 6 hr; for #9 HY 18 hr (mRNA expression level): cell type #9, hypoxia 18 hr; for #9 NO (mRNA expression level): cell type #9, normoxia; for #10 HY 6 hr (mRNA expression level): cell type #10, hypoxia 6 hr; for #10 HY 18 hr (mRNA expression level): cell type #10, hypoxia 18 hr; for #10 NO (mRNA expression level): cell type #10, normoxia; for #11 HY 6 hr (mRNA expression level): cell type #11, hypoxia 6 hr; for #11 HY 18 hr (mRNA expression level): cell type #11, hypoxia 18 hr; for #11 NO (mRNA expression level): cell type #11, normoxia
Protocol: Equivalent cultures of non-immortalized, non-transformed primary human cells of 10 distinct types, were cultured in either normoxia or were exposed to hypoxia for 6 hr and 18 hr, and gene expression changes were determined. […] Moreover, unlike the vast majority of information in the public domain relating to genes responsive to hypoxia, all of these cells were human and were cultured without any modifications following isolation from the human donors.
A non-primary cell type (#9) was used to represent neurons, since primary human neurons are difficult to source. Therefore a total of 11 cell types are compared. It should be noted that RNA from hepatocytes at the […] timepoint of hypoxia was not available for this work.
Each RNA sample was hybridised to duplicate or triplicate arrays, to ensure reproducible data, and was analysed using GeneSpring software. Data from replicate arrays were merged during analysis to generate mean values. Data normalisation was achieved per-array using the aforementioned list of control genes, such that differences in RNA labelling or hybridization due to experimental variation were corrected by referencing each gene to the mean value of the reference genes on the same array. Also, for each gene, expression values were obtained which represent the value in each experimental condition (e.g. macrophages 6 hr hypoxia) as compared to the median of value of that gene throughout the full range of experimental conditions (i.e. from all cell types). […] This is common in microarray data analysis.

[1] = cell type #1, HY (hypoxia) 6 hr
[2] = cell type #1, HY (hypoxia) 18 hr
[3] = cell type #2, HY (hypoxia) 6 hr
[4] = cell type #2, HY (hypoxia) 18 hr
[5] = cell type #3, HY (hypoxia) 6 hr
[6] = cell type #3, HY (hypoxia) 18 hr
[7] = cell type #4, HY (hypoxia) 6 hr
[8] = cell type #4, HY (hypoxia) 18 hr
[9] = cell type #5, HY (hypoxia) 6 hr
[10] = cell type #6, HY (hypoxia) 6 hr
[11] = hypoxia/normoxia induction ratio, 18 hr monocyte

B1: p1G22 (nucleic acid, listed as Homo Sapiens)
DNA: TTTTTTTTTGTTTCTGTTTTGTTTTTTCTTTTGCACTGATATATACCATACCAACATTGCAAGATGCAAAGTGTGGAAACTGGAGTTTAAATAAAATTACAAGGCAAAACTACCCCATCCCAAGTGCGGTTGCTGTACATATCTACAGTACAATTTTTGGAATGTATTGCCATTTAAGAACATAGAAACTTTCTACAGACAATTTCACATACAGAATACGTACACCTTTTAGAAAAAAAGGCAAATATTTATCTTACAGAGAGCATTGTATTTTACATTTGCCTGCACGTTTCTTTTTTCTGTTTCTTTTCTTTCTTTCTTTTTTTACATACTAGGATTTATTAAAGTGACCATAAGGTGCCCGANGCGGGTTTTCTAATGGGNAAGCAGACTGGGNTTCACCAACACAGGNGCAGGATTGGGTGGGACAGGCTTTCGGGGACCTTTCTTCCCCTGGGNCACACGGGCAGATCCGGTCCCCAAGGGCAGGNTGTTCAGCCNGGGGCTTTTNCTTTT
modifications: misc_feature 366, 384, 397, 412, 459, 491, 501, 511: n = A,T,C or G
DOWN, 18 hr mam epithelial
  HIGHEST FOLD CHANGE IN HYPOXIA (hr hypoxia + cell type): 2.38 DOWN (18 hr mam epithelial) ^ fold
[1]
  mRNA expression level: 0.78
[2]
  mRNA expression level: 0.72
Cell type #1, NO (normoxia)
  mRNA expression level: 1.14
[3]
  mRNA expression level: 2.67
[4]
  mRNA expression level: 1.41
Cell type #2, NO (normoxia)
  mRNA expression level: 2.75
[5]
  mRNA expression level: 12.7
[6]
  mRNA expression level: 8.79
Cell type #3, NO (normoxia)
  mRNA expression level: 8.35
[7]
  mRNA expression level: 1.21
[8]
  mRNA expression level: 1.01
Cell type #4, NO (normoxia)
  mRNA expression level: 1.35
[9]
  mRNA expression level: 0.70
Cell type #5, NO (normoxia)
  mRNA expression level: 0.59
[10]
  mRNA expression level: 0.63
Cell type #6, NO (normoxia)
  mRNA expression level: 0.77

B2: p1E9 (nucleic acid, listed as Homo Sapiens)
DNA: AGACCCCCCAGGGTGCCTCCGAGAGCTGCCTCACAGAGGACTCCGACCAGGGAGACCTTCCATCCTCCTCCACCTGTTCCACCCAGAGGACGCTGATTCCACCTCCTAAAACCTGCCTACTTCAGGACTTTAAGACTCACAGTCTTCAGCCTGTTAATGATGTCTTCATGTTGAGTTTTATAGCATGACTGTTGACCTTAAGATCCATTCTCATTGCTGATAATGCTGCAGCCCTGCTGGTTTGGGCTTGCTCGAAGATTTTATTAAGGCACGAAGAAGTGAAAAACTAAGGGCTTCATTCACCATCACCAAGTATATCGAACCATATACTTGTTTGCCAAAAGGGTGGAAGGACTTTAATTCGGAAATACTTTACCTCTTAATTTGGCCATATTCAGGAGGCCTAAAAGGATTGATCCNTAATGTTATTTCACCGTGGTTTTTATTGAATGG
modifications: misc_feature 420: n = A,T,C or G
  mRNA expression level, #1 HY 6 hr: 0.89
  mRNA expression level, #1 HY 18 hr: 1.48
  mRNA expression level, #1 NO: 1.54
  mRNA expression level, #2 HY 6 hr: 1.80
  mRNA expression level, #2 HY 18 hr: 1.53
  mRNA expression level, #2 NO: 1.18
  mRNA expression level, #3 HY 6 hr: 0.82
  mRNA expression level, #3 HY 18 hr: 0.60
  mRNA expression level, #3 NO: 0.68
  mRNA expression level, #4 HY 6 hr: 0.64
  mRNA expression level, #4 HY 18 hr: 0.73
  mRNA expression level, #4 NO: 0.60
  mRNA expression level, #5 HY 6 hr: 1.62
  mRNA expression level, #5 NO: 0.92
  mRNA expression level, #6 HY 6 hr: 3.97
  #6 HY 18 hr (mRNA expression level): 6.19
  mRNA expression level, #6 NO: 4.20
  #7 HY 6 hr (mRNA expression level): 0.42
  #7 HY 18 hr (mRNA expression level): 0.18
  #7 NO (mRNA expression level): 0.25
  #8 HY 6 hr (mRNA expression level): 3.63
  #8 HY 18 hr (mRNA expression level): 5.01
  #8 NO (mRNA expression level): 2.33
  #9 HY 6 hr (mRNA expression level): 0.80
  #9 HY 18 hr (mRNA expression level): 0.85
  #9 NO (mRNA expression level): 0.93
  #10 HY 6 hr (mRNA expression level): 0.61
  #10 HY 18 hr (mRNA expression level): 0.61
  #10 NO (mRNA expression level): 0.57
  #11 HY 6 hr (mRNA expression level): 1.37
  #11 HY 18 hr (mRNA expression level): 1.17
  #11 NO (mRNA expression level): 1.58
[11]
  HIGHEST FOLD CHANGE IN HYPOXIA (hr hypoxia + cell type): 2.15 (18 hr monocyte) fold

B3: p1F1 (nucleic acid, listed as Homo Sapiens)
DNA: TTTGTGTGGTCTTTTTTTTTTTTTCTCAGTGTTTTCAATTCCTCCTTGGTTGAATCCATGGATGCAAAACCCACAGATATGAAGGGCTGGCTATATATGCATTGATGATTGTCCTATTATATTAGTTATAAAGTGTCATTTAATATGTAGTGAAAGTTATGGTACAGTGGAAAGAGTAGTTGAAAACATAAACATTTGGGCCTTTCAAGAAAGGTAGCTTGGTGAAGTTTTTCACCTTCAAACTATGTCCCAGTCAGGG
  mRNA expression level, #1 HY 6 hr: 0.33
  mRNA expression level, #1 HY 18 hr: 0.52
  mRNA expression level, #1 NO: 0.58
  mRNA expression level, #2 HY 6 hr: 1.19
  mRNA expression level, #2 HY 18 hr: 1.14
  mRNA expression level, #2 NO: 1.42
  mRNA expression level, #3 HY 6 hr: 1.70
  mRNA expression level, #3 HY 18 hr: 1.49
  mRNA expression level, #3 NO: 1.64
  mRNA expression level, #4 HY 6 hr: 0.63
  mRNA expression level, #4 HY 18 hr: 0.54
  mRNA expression level, #4 NO: 0.95
  mRNA expression level, #5 HY 6 hr: 0.50
  mRNA expression level, #5 NO: 0.37
  mRNA expression level, #6 HY 6 hr: 0.61
  #6 HY 18 hr (mRNA expression level): 0.51
  mRNA expression level, #6 NO: 0.62
  #7 HY 6 hr (mRNA expression level): 0.90
  #7 HY 18 hr (mRNA expression level): 0.30
  #7 NO (mRNA expression level): 0.91
  #8 HY 6 hr (mRNA expression level): 0.53
  #8 HY 18 hr (mRNA expression level): 0.66
  #8 NO (mRNA expression level): 0.34
  #9 HY 6 hr (mRNA expression level): 1.23
  #9 HY 18 hr (mRNA expression level): 1.06
  #9 NO (mRNA expression level): 1.66
  #10 HY 6 hr (mRNA expression level): 1.58
  #10 HY 18 hr (mRNA expression level): 1.03
  #10 NO (mRNA expression level): 1.46
  #11 HY 6 hr (mRNA expression level): 1.24
  #11 HY 18 hr (mRNA expression level): 1.06
  #11 NO (mRNA expression level): 1.25
[11]
  HIGHEST FOLD CHANGE IN HYPOXIA (hr hypoxia + cell type): 1.96 (18 hr monocyte) fold

B4: p1G21 (nucleic acid, listed as Homo Sapiens)
DNA: TTTTACATACTAGATTTATTAAAGTGACCATAAGTGCCGAAGCGGTTTTCTAATGGAAAGCAGACTGGATTCACAACACAGAAGCAGAATTGGTGGAACAGGCTTTCGGGAACTTTCTTCCCCTGGTCACACGGCAGATCGGTCCCCAAGGACAGGTGCTCAGCCAGGACTTTTGCTTTAAGAAGGATTTGTCTNGAGAAAGGACTAGAGAGAAATCCAGCTCAGATGTATTGCTCATTCCTCTTCAGAAGGACTGGGTNGGAATGGAGCAGGGGCTAGAGGAATCTGGAAGCTAATTCTTTTAGGCTTTTTCCAACAGAGGGAAGCAGAGGGACTTCTGGGTCTTGAAGTTTGGAGCTTACGGAGGCGA
modifications: misc_feature 195, 260: n = A,T,C or G
DOWN, 6 hr macrophage
  HIGHEST FOLD CHANGE IN HYPOXIA (hr hypoxia + cell type): 1.85 DOWN (6 hr macrophage) ^ fold
[1]
  mRNA expression level: 1.01
[2]
  mRNA expression level: 0.55
Cell type #1, NO (normoxia)
  mRNA expression level: 0.99
[3]
  mRNA expression level: 1.48
[4]
  mRNA expression level: 1.10
Cell type #2, NO (normoxia)
  mRNA expression level: 2.02
[5]
  mRNA expression level: 1.13
[6]
  mRNA expression level: 0.80
Cell type #3, NO (normoxia)
  mRNA expression level: 1.54
[7]
  mRNA expression level: 0.65
[8]
  mRNA expression level: 0.60
Cell type #4, NO (normoxia)
  mRNA expression level: 0.78
[9]
  mRNA expression level: 1.35
Cell type #5, NO (normoxia)
  mRNA expression level: 0.72
[10]
  mRNA expression level: 0.69
Cell type #6, NO (normoxia)
  mRNA expression level: 1.28
